Measured values taken from US20090291088A1 (Biogen, published 2009).

Experiments:
[1] = target: T1, hIGF-1R-Fc mutant SD012 (E303G) (human, UniProt P08069 31-933); experiment: SPR, Fab over captured SD012
T1 construct: not shown: C-terminal human IgG1-Fc tag
Protocol: (§1) Surface plasmon resonance (SPR) experiments were performed on a Biacore 3000 instrument set to 25° C. […] The antibody sensorchip surfaces were prepared by injecting each antibody (diluted 100 μg/mL in 10 mM Acetate, pH 4.0) over EDC/NHS-activated sensorchip surfaces according to the standard protocol of the manufacturer. […] Both hIGF-1R-Fc and mIGF-1R-Fc proteins oligomerize due to the incorporation of two separate homodimeric regions (IGF-1R and IgG1-Fc). […] After, completion of the receptor-Fc loading step, flow rates were elevated to 5 μl/min. […] Dissociation was measured for 7 minutes after the antibody injections were complete. Finally, the flow rate was elevated to 30 μL/min and the chip surfaces were regenerated by 2×10 μL injections of 0.1 M glycine, pH 2.

[2] = target: T2, hIGF-1R-Fc mutant SD008 (S257F) (human, UniProt P08069 31-933); experiment: SPR, Fab over captured SD008
T2 construct: not shown: C-terminal human IgG1-Fc tag
Protocol: as §1

[3] = target: T3, human IGF-1R expressed on cells (human, UniProt P08069 31-1367); experiment: flow cytometry, MCF-7 cells
T3 construct: On MCF-7 tumor cells or on 3T3/CHO transfectants; precursor is processed into alpha and beta subunits; Signal peptide 1-30 left out as stated; also called wild type IGF-1R; IGF-1R 3T3

[4] = target: T4, human IGF-1R(1-902)-His10 (human, UniProt P08069 31-932); experiment: SPR, Fab over captured IGF-1R-10His
T4 construct: Cy5-labelled in tr-FRET; also called hIGF-1R-His10; IGF-1R-His
Protocol: All surface plasmon resonance (SPR) experiments were performed on a Biacore 3000 set to 25° C. using HBS-EP (Biacore, Cat. No. BR-1001-88) as the running buffer. A biotin-labeled anti-HisTag antibody (biotin-PENTA-His, Qiagen Cat. No. 34440) was immobilized to saturation on a Biacore SA chip (Cat. No. BR-1000-32) surface by injection at 500 nM in HBS-EP buffer. […] Subsequent to IGF-1R injections, flow rates were increased to 20 μL/min. A second, 130 μL injection of anti-IGF-1R antibody or Fab was performed to investigate interactions with the receptor. Each antibody and Fab was serially diluted from 64 nM to 0.5 nM to obtain concentration dependent kinetic binding curves. Each injection series was regenerated using 3×10 μL injections of 10 mM Acetate, pH 4.0, at 20 μL/min. Each curve was double referenced using (1) data obtained from a streptavidin surface devoid of IGF-1R and (2) data from a primary injection of IGF-1R followed by a secondary injection of HBS-EP buffer. The concentration series for each antibody and Fab was fit to the 1:1 binding model provided within the BiaEvaluation software of the manufacturer.
To obtain discrete affinities, Fab fragments of each antibody were generated using papain digestion as described above.

[5] = target: T5, hIGF-1R-Fc mutant SD202 (D250S) (human, UniProt P08069 31-933); experiment: SPR, Fab over captured mutant
T5 construct: not shown: C-terminal human IgG1-Fc tag

[6] = target: T6, hIGF-1R-Fc mutant SD201 (D248A) (human, UniProt P08069 31-933); experiment: SPR, Fab over captured mutant
T6 construct: not shown: C-terminal human IgG1-Fc tag

[7] = target: T7, hIGF-1R-Fc mutant SD015 (H464E) (human, UniProt P08069 31-933); experiment: SPR, Fab over captured SD015
T7 construct: not shown: C-terminal human IgG1-Fc tag

human IGF-1R(1-903)-Fc [8] = target: T8, human IGF-1R(1-903)-Fc (human, UniProt P08069 31-933); experiment: ELISA on hIGF-1R-Fc, competitor biotinylated M14-G11
T8 construct: Made by Biogen Idec; Multimerises through IGF-1R and Fc; also called hIGF-1R-Fc; IGF-1R-Fc; not shown: C-terminal human IgG1-Fc tag

human IGF-1R(1-903)-Fc [9] = target: T8, human IGF-1R(1-903)-Fc; experiment: ELISA on hIGF-1R-Fc, competitor Zenon-labelled αIR3
[10] = target: T9, hIGF-1R-Fc mutant SD203 (N254A) (human, UniProt P08069 31-933); experiment: SPR, antibody over captured mutant
T9 construct: not shown: C-terminal human IgG1-Fc tag
Protocol: as §1

[11] = target: T10, hIGF-1R-Fc mutant SD207 (G265Y) (human, UniProt P08069 31-933); experiment: SPR, antibody over captured mutant
T10 construct: not shown: C-terminal human IgG1-Fc tag
Protocol: as §1

Binder | fold loss in affinity against wild-type [1] [fold] | fold loss in affinity against wild-type [2] [fold] | EC50 [3] [nM] | Kd [4] [nM] | koff [4] [s⁻¹] | kon [4] [M⁻¹ s⁻¹] | binding result [5] | binding result [6] | Kd [7] [nM] | percent competition (relative to self-competition) (human IGF-1R(1-903)-Fc [8]) [%] | percent competition (relative to self-competition) (human IGF-1R(1-903)-Fc [9]) [%] | binding result [10] | binding result [11]
M14-G11 Fab (Fab, V domains shown, Human phage Fab, kappa) VH: EVQLLESGGGLVQPGGSLRLSCAASGFTFSNYPMYWVRQAPGKGLEWVSRISSSGGRTVYADSVKGRFTISRDNSKNTLYLQMNSLRAEDTAVYYCARDRWSRSAAEYGLGGYWGQGTLVTVSS VL: not shown | ~3 | ~3 | 39.8 | 4 | 0.0012 | 300000 | no binding (tested: 30 nM) | no binding (tested: 30 nM) | 4 to 6 | – | – | – | –
P1E2 (chimeric antibody) (antibody, human IgG4, V domains shown, also called chimeric antibody P1E2) VH: QVQLQQPGAELVKPGASVKLSCKASGYTFTSYWMHWVKQRPGQGLEWIGEINPTYGRSNYNEKFKSKATLTVDKSSSTAYMQLSSLTSEDSAVYYCARLVRLRYFDVWGAGTTVTVSS VL: DIVMTQAAFSNPVTLGTSASISCRSSKSLLHSNGITYLYWYLQKPGQSPQLLIYQMSNLASGVPDRFSSSGSGTDFTLRISRVEAEDVGVYYCAQNLELPYTFGGGTKLEIK | – | – | – | – | – | – | – | – | – | 90 to 100 | 90 to 100 | no binding (tested: 30 nM) | no binding (tested: 30 nM)
